From paper PMC8239462, “Molecular chaperone RAP interacts with LRP1 in a dynamic bivalent mode and enhances folding of ligand-binding regions of other LDLR family receptors” (The Journal of Biological Chemistry, 2021)
Where “and” joins values, the source holds several entries; their conditions need not be identical. Identical values can stand only once.

B1: LRP1 CR.7–8 doublet (coexpression study) (domain or fragment)
chain: not shown
notes: human LRP1 complement-type repeats 7–8 (cluster II); also called LRP1 CR.7–8 (RAP+); LRP1 CR.7–8 (RAP−); source: Sf9, baculovirus (pFastBac-Dual), expressed without RAP or coexpressed with RAP; purified (HisTrap Excel, Superdex 75, monomer peak)
B2: LRP1 CR.6–8 triplet expressed without RAP (RAP−) (domain or fragment)
chain: not shown
notes: human LRP1 complement-type repeats 6–8 (cluster II); also called LRP1 CR.6–8 (RAP−); source: Sf9, baculovirus (pFastBac-Dual), expressed without RAP; purified (HisTrap Excel, Superdex 75, monomer peak)
B3: RAP (commercial; R&D, 4296-LR) (natural protein, human)
chain: YSREKNQPKPSPKRESGEEFRMEKLNQLWEKAQRLHLPPVRLAELHADLKIQERDELAWKKLKLDGLDEDGEKEARLIRNLNVILAKYGLDGKKDARQVTSNSLSGTQEDGLDDPRLEKLWHKAKTSGKFSGEELDKLWREFLHHKEKVHEYNVLLETLSRTEEIHENVISPSDLSDIKGSVLHSRHTELKEKLRSINQGLDRLRRVSHQGYSTEAEFEEPRVIDLWDLAQSANLTDKELEAFREELKHFEAKIEKHNHYQKQLEIAHEKLRHAESVGDGERVSRSREKHALLEGRTKELGYTVKKHLQDLSGRISRARHNEL
notes: RAP (LDL-receptor related protein-associated protein), commercial preparation; also called receptor-associated protein; LDL-receptor related protein-associated protein; source: bought: R&D (4296-LR)
B4: LRP1 CR.6–7 doublet (coexpression study) (domain or fragment)
chain: not shown
notes: human LRP1 complement-type repeats 6–7 (cluster II); also called LRP1 CR; 6–7 (RAP+); LRP1 CR 6–7 (RAP−); source: Sf9, baculovirus (pFastBac-Dual), expressed without RAP or coexpressed with RAP; purified (HisTrap Excel, Superdex 75, monomer peak)
B5: LRP1 CR.6–8 triplet coexpressed with RAP (RAP+) (domain or fragment)
chain: not shown
notes: human LRP1 complement-type repeats 6–8 (cluster II); also called LRP1 CR; 6–8 (RAP+); source: Sf9, baculovirus (pFastBac-Dual), coexpressed with RAP; purified (HisTrap Excel, Superdex 75, monomer peak)
B6: LRP1 cluster II (CR.3–10), recombinant, secreted from Sf9 cells (domain or fragment)
chain: PQCQPGEFACANSRCIQERWKCDGDNDCLDNSDEAPALCHQHTCPSDRFKCENNRCIPNRWLCDGDNDCGNSEDESNATCSARTCPPNQFSCASGRCIPISWTCDLDDDCGDRSDESASCAYPTCFPLTQFTCNNGRCININWRCDNDNDCGDNSDEAGCSHSCSSTQFKCNSGRCIPEHWTCDGDNDCGDYSDETHANCTNQATRPPGGCHTDEFQCRLDGLCIPLRWRCDGDTDCMDSSDEKSCEGVTHVCDPSVKFGCKDSARCISKAWVCDGDNDCEDNSDEENCESLACRPPSHPCANNTSVCLPPDKLCDGNDDCGDGSDEGELC
notes: also called LRP1 cluster II (8 CRs); cluster II (RAP−)
B7: recombinant human LRP-1 cluster II Fc chimera protein (R&D, 2368-L2) (Fc fusion, UniProt Q07954 852-1182, looked up)
chain: B6 chain
notes: human LRP1 cluster II of the bought Fc chimera; also called commercial LRP1 cluster II; source: bought: R&D (2368-L2)
B8: LRP1 CR.7 singlet (domain or fragment)
chain: not shown
notes: human LRP1 complement-type repeat 7 (cluster II); also called LRP1 CR.7 (RAP+); LRP1 CR.7 (RAP−); source: Sf9, baculovirus (pFastBac-Dual), expressed without RAP or coexpressed with RAP; purified (HisTrap Excel, Superdex 75, monomer peak)

What was measured:
Conditions in all cases: both partners purified
[1] = biological target: B3; experiment: SPR; Biacore T200; receptor fragment COEXPRESSED with RAP (RAP+; for the LRP1 clusters RAP without HTEL; RAP washed off during purification), monomer, amine-coupled to CM5 at ~250 RU; RAP (0.08–20 nM), FVIII (0.8–200 nM) or ApoE3 (0.78–200 nM) in flow, 30 ul/min, contact 180 s; HBS-P Ca2+ pH 7.4; KD from the steady-state affinity model
[2] = biological target: B3; experiment: SPR; Biacore T200; receptor fragment expressed WITHOUT RAP (RAP−), monomer, amine-coupled to CM5 at ~250 RU; RAP (0.08–20 nM), FVIII (0.8–200 nM) or ApoE3 (0.78–200 nM) in flow, 30 ul/min, contact 180 s; HBS-P Ca2+ pH 7.4 (10 mM HEPES, 150 mM NaCl, 5 mM CaCl2, 0.005% Tween-20); KD from the steady-state affinity model
[3] = biological target: T1, LRP1 cluster III, recombinant, secreted from Sf9 cells (human, UniProt Q07954 2522-2940); experiment: SPR; Biacore T200; receptor fragment COEXPRESSED with RAP (RAP+; for the LRP1 clusters RAP without HTEL; RAP washed off during purification), monomer, amine-coupled to CM5 at ~250 RU; RAP (0.08–20 nM), FVIII (0.8–200 nM) or ApoE3 (0.78–200 nM) in flow, 30 ul/min, contact 180 s; HBS-P Ca2+ pH 7.4; KD from the steady-state affinity model
T1 construct: also called cluster III (RAP+); cluster III (RAP−)
T1 sequence (Q07954 2522-2940): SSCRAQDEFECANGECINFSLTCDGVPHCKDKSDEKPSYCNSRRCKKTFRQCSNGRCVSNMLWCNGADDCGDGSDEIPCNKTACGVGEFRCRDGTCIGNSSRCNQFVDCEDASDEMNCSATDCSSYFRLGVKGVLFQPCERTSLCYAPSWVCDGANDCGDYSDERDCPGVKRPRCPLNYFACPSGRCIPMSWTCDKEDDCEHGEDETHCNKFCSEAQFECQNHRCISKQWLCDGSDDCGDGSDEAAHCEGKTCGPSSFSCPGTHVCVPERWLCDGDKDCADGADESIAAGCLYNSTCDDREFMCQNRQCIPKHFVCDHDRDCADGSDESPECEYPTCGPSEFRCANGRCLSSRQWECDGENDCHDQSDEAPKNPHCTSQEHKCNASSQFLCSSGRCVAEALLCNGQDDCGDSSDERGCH

[4] = biological target: T2, recombinant Factor VIII (Advate) (UniProt P00451 20-2351); experiment: SPR; Biacore T200; LRP1 cluster II coexpressed with RAP having the HTEL signal (RAP-HTEL+), monomer, amine-coupled to CM5 at ~250 RU; RAP (0.08–20 nM) or FVIII (0.8–200 nM) in flow; HBS-P Ca2+ pH 7.4; KD from the steady-state affinity model
T2 construct: blood coagulation factor VIII, recombinant drug product Advate; also called FVIII; blood coagulation factor VIII; source: bought: Advate
T2 sequence (P00451 20-2351): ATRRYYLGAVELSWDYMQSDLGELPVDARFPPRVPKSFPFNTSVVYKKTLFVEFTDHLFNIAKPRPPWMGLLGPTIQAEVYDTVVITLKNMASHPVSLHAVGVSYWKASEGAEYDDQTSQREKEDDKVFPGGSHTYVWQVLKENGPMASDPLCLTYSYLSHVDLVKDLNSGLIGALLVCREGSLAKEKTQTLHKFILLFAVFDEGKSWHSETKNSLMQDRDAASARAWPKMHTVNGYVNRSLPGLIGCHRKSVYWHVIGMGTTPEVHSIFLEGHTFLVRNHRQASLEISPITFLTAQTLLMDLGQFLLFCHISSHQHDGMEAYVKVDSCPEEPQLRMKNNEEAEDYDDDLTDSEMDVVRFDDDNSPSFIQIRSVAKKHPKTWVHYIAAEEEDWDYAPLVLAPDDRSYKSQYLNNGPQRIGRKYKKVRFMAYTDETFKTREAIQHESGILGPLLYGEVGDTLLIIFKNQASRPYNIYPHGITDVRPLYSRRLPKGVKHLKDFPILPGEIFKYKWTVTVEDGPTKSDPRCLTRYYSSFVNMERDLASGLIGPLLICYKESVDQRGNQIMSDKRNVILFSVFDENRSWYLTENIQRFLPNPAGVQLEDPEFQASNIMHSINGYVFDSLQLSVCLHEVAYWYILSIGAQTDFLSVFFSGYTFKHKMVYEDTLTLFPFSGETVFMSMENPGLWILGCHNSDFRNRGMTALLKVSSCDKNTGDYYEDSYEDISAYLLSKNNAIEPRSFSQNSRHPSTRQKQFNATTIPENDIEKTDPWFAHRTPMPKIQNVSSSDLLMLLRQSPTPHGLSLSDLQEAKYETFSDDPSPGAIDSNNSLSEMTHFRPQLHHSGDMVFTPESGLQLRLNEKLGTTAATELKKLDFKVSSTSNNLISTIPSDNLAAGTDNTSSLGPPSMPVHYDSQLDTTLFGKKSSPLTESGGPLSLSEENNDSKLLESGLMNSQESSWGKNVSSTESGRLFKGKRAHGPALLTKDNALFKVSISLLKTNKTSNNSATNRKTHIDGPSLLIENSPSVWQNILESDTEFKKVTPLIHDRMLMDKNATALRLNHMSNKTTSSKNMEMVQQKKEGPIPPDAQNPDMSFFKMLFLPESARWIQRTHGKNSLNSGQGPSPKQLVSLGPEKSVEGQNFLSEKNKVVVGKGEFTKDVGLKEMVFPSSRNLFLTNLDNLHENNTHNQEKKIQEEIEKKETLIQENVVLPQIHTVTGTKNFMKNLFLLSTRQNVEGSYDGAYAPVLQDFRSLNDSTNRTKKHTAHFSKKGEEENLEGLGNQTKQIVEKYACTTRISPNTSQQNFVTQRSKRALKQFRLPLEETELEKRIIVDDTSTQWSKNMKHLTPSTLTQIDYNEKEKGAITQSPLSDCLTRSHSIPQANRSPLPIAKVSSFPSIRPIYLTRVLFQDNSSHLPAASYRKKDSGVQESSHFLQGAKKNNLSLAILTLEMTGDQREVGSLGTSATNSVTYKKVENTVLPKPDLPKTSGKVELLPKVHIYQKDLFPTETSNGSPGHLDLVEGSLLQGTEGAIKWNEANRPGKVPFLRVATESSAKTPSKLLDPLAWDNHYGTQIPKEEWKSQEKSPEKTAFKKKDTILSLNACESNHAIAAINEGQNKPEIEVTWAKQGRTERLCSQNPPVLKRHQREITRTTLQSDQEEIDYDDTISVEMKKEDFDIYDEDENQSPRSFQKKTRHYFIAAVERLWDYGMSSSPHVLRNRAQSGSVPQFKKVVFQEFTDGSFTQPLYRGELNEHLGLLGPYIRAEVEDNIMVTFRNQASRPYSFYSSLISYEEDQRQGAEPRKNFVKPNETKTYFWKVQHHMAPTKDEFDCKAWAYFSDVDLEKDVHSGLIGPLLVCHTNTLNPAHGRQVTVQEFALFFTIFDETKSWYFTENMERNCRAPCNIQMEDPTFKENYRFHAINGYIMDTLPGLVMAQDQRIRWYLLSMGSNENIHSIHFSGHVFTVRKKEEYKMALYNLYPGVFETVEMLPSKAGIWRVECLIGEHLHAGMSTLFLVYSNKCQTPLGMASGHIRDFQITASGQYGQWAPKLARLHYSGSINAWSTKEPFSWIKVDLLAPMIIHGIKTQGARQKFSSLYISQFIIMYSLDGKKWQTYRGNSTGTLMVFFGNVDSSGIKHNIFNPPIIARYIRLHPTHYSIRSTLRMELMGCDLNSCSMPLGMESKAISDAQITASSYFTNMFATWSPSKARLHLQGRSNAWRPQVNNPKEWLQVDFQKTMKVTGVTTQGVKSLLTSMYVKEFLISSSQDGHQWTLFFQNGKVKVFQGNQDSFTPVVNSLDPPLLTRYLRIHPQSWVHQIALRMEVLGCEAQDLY

[5] = biological target: T2, recombinant Factor VIII (Advate); experiment: SPR; Biacore T200; receptor fragment COEXPRESSED with RAP (RAP+; for the LRP1 clusters RAP without HTEL; RAP washed off during purification), monomer, amine-coupled to CM5 at ~250 RU; RAP (0.08–20 nM), FVIII (0.8–200 nM) or ApoE3 (0.78–200 nM) in flow, 30 ul/min, contact 180 s; HBS-P Ca2+ pH 7.4; KD from the steady-state affinity model
[6] = biological target: T2, recombinant Factor VIII (Advate); experiment: SPR; Biacore T200; receptor fragment expressed WITHOUT RAP (RAP−), monomer, amine-coupled to CM5 at ~250 RU; RAP (0.08–20 nM), FVIII (0.8–200 nM) or ApoE3 (0.78–200 nM) in flow, 30 ul/min, contact 180 s; HBS-P Ca2+ pH 7.4 (10 mM HEPES, 150 mM NaCl, 5 mM CaCl2, 0.005% Tween-20); KD from the steady-state affinity model
[7] = biological target: T2, recombinant Factor VIII (Advate); experiment: SPR; Biacore T200; commercial LRP1 cluster Fc chimeras (R&D) amine-coupled to CM5 at ~250 RU; RAP (0.08–20 nM) or FVIII (0.8–200 nM) in flow; HBS-P Ca2+ pH 7.4; KD from the steady-state affinity model

## B1
[1]
  Kd: 3.1 nM

## B2
[2]
  Kd: 2.9 nM

## B3
[3]
  Kd: 2 nM

## B4
[1]
  Kd: 3.8 nM
[2]
  Kd: 3.9 nM

## B5
[1]
  Kd: 2.8 nM

## B6
[4]
  Kd: 37 nM
[5]
  Kd: 25 nM and 42 nM
[6]
  Kd: 244 nM and 192 nM

## B7
[7]
  Kd: 450 nM

## B8
[1]
  Kd: 34.9 nM
[2]
  Kd: 43.7 nM
